Measurements taken from patent US20230143604A1, “QW DOSING OF GIP RECEPTOR AGONIST PEPTIDE COMPOUNDS AND USES THEREOF” (TAKEDA PHARMACEUTICAL COMPANY LIMITED, priority 2020, published 2023).
Non-standard residues stand in square brackets, D forms with d. Groups on a side chain read outwards from the residue. No end group written: not given here. *: point of attachment. 2OEGgEgE‑C18 diacid = O=C(O)CCCCCCCCCCCCCCCCC(=O)N[C@@H](CCC(=O)N[C@@H](CCC(=O)NCCOCCOCC(=O)NCCOCCOCC(=O)*)C(=O)O)C(=O)O; C20 diacid = O=C(O)CCCCCCCCCCCCCCCCCCC(=O)*; C18 diacid = O=C(O)CCCCCCCCCCCCCCCCC(=O)*; C17 diacid = O=C(O)CCCCCCCCCCCCCCCC(=O)*; NMeY = CN[C@@H](Cc1ccc(O)cc1)C(=O)O; Aib = CC(C)(N)C(=O)O

Columns and labels:
[1] = molecular target: T1, full-length human GIPR with an N-terminal FLAG tag (human, UniProt P48546 22-466); test: cell-based or functional assay
T1 sequence (looked up): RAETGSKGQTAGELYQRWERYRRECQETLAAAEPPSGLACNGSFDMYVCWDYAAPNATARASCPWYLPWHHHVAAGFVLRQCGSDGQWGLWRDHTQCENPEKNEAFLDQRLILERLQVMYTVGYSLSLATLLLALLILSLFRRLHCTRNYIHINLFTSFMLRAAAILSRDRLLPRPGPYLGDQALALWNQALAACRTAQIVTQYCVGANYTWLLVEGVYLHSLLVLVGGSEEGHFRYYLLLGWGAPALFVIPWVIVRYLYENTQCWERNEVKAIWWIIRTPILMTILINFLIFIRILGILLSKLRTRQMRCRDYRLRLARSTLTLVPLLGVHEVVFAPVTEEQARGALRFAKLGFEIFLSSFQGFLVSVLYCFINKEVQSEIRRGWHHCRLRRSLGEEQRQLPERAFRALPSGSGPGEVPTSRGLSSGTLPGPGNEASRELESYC

[2] = molecular target: full-length human GLP-1R with an N-terminal FLAG tag (human, UniProt P43220 24-463); test: cell-based or functional assay

Binder	Human GIPR cAMP EC50, HEK293T [1] [pM]	Human GLP1R cAMP EC50, HEK293T [2] [nM]
[NMeY][Aib]EGTFISDYSI[Aib]LDR[Aib]AQ[Aib]DFVNWLLAK(2OEGgEgE‑C18 diacid)RG-OH (N-terminus assumed; SMILES CC[C@H](C)[C@H](NC(=O)[C@H](Cc1ccccc1)NC(=O)[C@@H](NC(=O)CNC(=O)[C@H](CCC(=O)O)NC(=O)C(C)(C)NC(=O)[C@H](Cc1ccc(O)cc1)NC)[C@@H](C)O)C(=O)N[C@@H](CO)C(=O)N[C@@H](CC(=O)O)C(=O)N[C@@H](Cc1ccc(O)cc1)C(=O)N[C@@H](CO)C(=O)N[C@H](C(=O)NC(C)(C)C(=O)N[C@@H](CC(C)C)C(=O)N[C@@H](CC(=O)O)C(=O)N[C@@H](CCCNC(=N)N)C(=O)NC(C)(C)C(=O)N[C@@H](C)C(=O)N[C@@H](CCC(N)=O)C(=O)NC(C)(C)C(=O)N[C@@H](CC(=O)O)C(=O)N[C@@H](Cc1ccccc1)C(=O)N[C@H](C(=O)N[C@@H](CC(N)=O)C(=O)N[C@@H](Cc1c[nH]c2ccccc12)C(=O)N[C@@H](CC(C)C)C(=O)N[C@@H](CC(C)C)C(=O)N[C@@H](C)C(=O)N[C@@H](CCCCNC(=O)COCCOCCNC(=O)COCCOCCNC(=O)CC[C@H](NC(=O)CC[C@H](NC(=O)CCCCCCCCCCCCCCCCC(=O)O)C(=O)O)C(=O)O)C(=O)N[C@@H](CCCNC(=N)N)C(=O)NCC(=O)O)C(C)C)[C@@H](C)CC) [Compound No. 62]	0.4	> 1000
YXEGTFISDYSIAXDRXAQXDFVNWLLAQRG (N-methyl Tyr 1; Aib at 2,17,20; Lys(G5-C18 diacid) at 14; C-terminal OH) [Compound No. 63]	0.2	75.9
YXEGTFISDYSIXLDSXAQXDFVNWLLAQRG (N-methyl Tyr 1; Aib at 2,13,20; Lys(G6-C18 diacid) at 17; C-terminal OH) [Compound No. 64]	0.2	110
[NMeY][Aib]EGTFISDYSI[Aib]LDR[Aib]AQ[Aib]K([2OEGgEgE-C20 diacid])FVNWLLAQKG-OH [Compound No. 65]	1	40.7
[NMeY][Aib]EGTFISDYSI[Aib]LDR[Aib]AQ[Aib]K([2OEGgEgE-C18 diacid])FVNWLLAQKG-OH [Compound No. 66]	0.8	32.4
[NMeY][Aib]EGTFISDYSIALDR[Aib]K([2OEGgEgE-C20 diacid])Q[Aib]NFVNWLLAQSPSSGAPPPS-NH2 [Compound No. 68]	0.7	> 1000
[NMeY][Aib]EGTFISDYSIAKDR[Aib]AQ[Aib]NFVNWLLAQK-NH2 (not fully specified (residue 14)) [Compound No. 6]	0.4	83.2
[NMeY][Aib]EGTFISDYSI[Aib]LDR[Aib]AQ[Aib]NFVNWLLAQK([2OEGgEgE-C20 diacid])PSSGAPPPS-NH2 [Compound No. 69]	0.8	102
YXEGTFISDYSIAXDRXAQXDFVNWLLAQRPSSG (N-methyl Tyr 1; Aib at 2,17,20; Lys(G5-C18 diacid) at 14; C-terminal OH) [Compound No. 70]	0.2	43.7
[NMeY][Aib]EGTFISDYSI[Aib]LDR[Aib]K([2OEGgEgE-C18 diacid])Q[Aib]DFVNWLLAQRG-OH [Compound No. 73]	0.3	363
[NMeY][Aib]EGTFISDYSI[Aib]LDR[Aib]K([2OEGgEgE-C18 diacid])Q[Aib]NFVNWLLAQRG-OH [Compound No. 74]	0.5	468
YXEGTFISDYSIAXDKXAQXDFVNWLLAQKG (N-methyl Tyr 1; Aib at 2,17,20; Lys(G5-C18 diacid) at 14; C-terminal OH) [Compound No. 76]	0.6	28.8
YXEGTFISDYSIXLDSXAQXDFVNWLLAQKG (N-methyl Tyr 1; Aib at 2,13,20; Lys(G5-C18 diacid) at 17; C-terminal OH) [Compound No. 77]	0.3	17
YXEGTFISDYSIALDSXAQXDFVNWLLAQKG (N-methyl Tyr 1; Aib at 2,20; Lys(G5-C18 diacid) at 17; C-terminal OH) [Compound No. 78]	0.3	26.9
[NMeY][Aib]EGTFISDYSIAK([2OEGgEgE-C17 diacid])DR[Aib]AQ[Aib]NFVNWLLAQR-OH [Compound No. 7]	0.4	589
[NMeY][Aib]EGTFISDYSIAK([G4gE-C18 diacid])DR[Aib]AQ[Aib]DFVNWLLAQKG-OH [Compound No. 80]	0.3	115
